# Source: PMC11277083 (International Journal of Molecular Sciences, 2024)
# B1: KKCH peptide (peptide)
# peptide: KKCHFWPFPW
# Biological target: ACE2 protein (recombinant human, CUSABIO no. CSB-MP866317HU) (human, UniProt Q9BYF1 18-740)
# Assay: SPR; […] (50 ug/mL in sodium acetate pH 4.0, 10 uL/min, 420 s); […]; Biacore T200; […]
# Conditions: both partners purified
# ACE2 protein (recombinant human, CUSABIO no. CSB-MP866317HU), sequence (Q9BYF1 18-740): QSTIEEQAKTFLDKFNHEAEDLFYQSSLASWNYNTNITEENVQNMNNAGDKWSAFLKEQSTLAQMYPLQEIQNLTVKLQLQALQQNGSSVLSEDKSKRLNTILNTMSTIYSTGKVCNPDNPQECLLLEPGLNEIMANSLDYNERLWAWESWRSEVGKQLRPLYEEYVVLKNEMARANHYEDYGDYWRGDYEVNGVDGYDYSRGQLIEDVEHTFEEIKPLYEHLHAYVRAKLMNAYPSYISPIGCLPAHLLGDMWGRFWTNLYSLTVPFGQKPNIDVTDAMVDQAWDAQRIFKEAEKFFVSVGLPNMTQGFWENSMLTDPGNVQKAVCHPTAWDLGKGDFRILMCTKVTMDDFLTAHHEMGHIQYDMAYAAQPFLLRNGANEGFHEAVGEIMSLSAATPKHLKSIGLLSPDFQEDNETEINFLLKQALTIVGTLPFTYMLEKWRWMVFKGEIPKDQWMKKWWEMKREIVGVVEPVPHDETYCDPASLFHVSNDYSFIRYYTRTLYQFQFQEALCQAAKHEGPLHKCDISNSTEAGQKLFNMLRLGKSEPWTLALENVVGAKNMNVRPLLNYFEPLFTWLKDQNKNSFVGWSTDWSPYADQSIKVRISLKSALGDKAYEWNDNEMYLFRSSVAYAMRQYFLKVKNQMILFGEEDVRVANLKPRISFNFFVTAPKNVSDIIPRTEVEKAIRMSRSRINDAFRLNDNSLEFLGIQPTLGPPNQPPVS
binder,measurement,value
B1,Kd,624 nM
same,koff,0.0958 s⁻¹
same,kon,154000 M⁻¹ s⁻¹
